The source of these data is patent US20220259593A1, “CONTROL OF MAMMALIAN GENE DOSAGE USING CRISPR” (The Regents of the University of California, priority 2019, published 2022).

Substitutions are numbered along the chain they refer to.

B1: cr476 (nucleic acid)
guide: GTTTAAGAGCTAAGCTGGAAACAGCATAGCAAGTTTAAATAAGGCTAGTCCGTTATCAACTTGAAAAAGTGCGACCGAGTCGGTCGT
modifications: listed as DNA, chemistry not fully specified
B2: cr411 (nucleic acid)
guide: B1 guide with G44A, C72G, G73C, C85G, G86C
modifications: listed as DNA, chemistry not fully specified
B3: cr538 (nucleic acid)
guide: B1 guide with T34C, G44A, C50T, C72G, G73C, C85G, G86C
modifications: listed as DNA, chemistry not fully specified
B4: cr691 (nucleic acid)
guide: B1 guide with C72G, A74C, T84G, G86C
modifications: listed as DNA, chemistry not fully specified
B5: cr580 (nucleic acid)
guide: B1 guide with A38G, C72G, G73C, C85G, G86C
modifications: listed as DNA, chemistry not fully specified
B6: cr821 (nucleic acid)
guide: B1 guide with A26G, C72G, G73C, C85G, G86C
modifications: listed as DNA, chemistry not fully specified
B7: cr812 (nucleic acid)
guide: B1 guide with G48C, C72G, G73C, C85G, G86C
modifications: listed as DNA, chemistry not fully specified
B8: cr089 (nucleic acid)
guide: B1 guide with A6T, G7A, C72G, G73C, C85G, G86C
modifications: listed as DNA, chemistry not fully specified
B9: cr063 (nucleic acid)
guide: B1 guide with G1A, A5T, C72G, G73C, C85G, G86C
modifications: listed as DNA, chemistry not fully specified
B10: cr881 (nucleic acid)
guide: B1 guide with G52T, T56A, C72G, G73C, C85G, G86C
modifications: listed as DNA, chemistry not fully specified
B11: cr683 (nucleic acid)
guide: B1 guide with C50T, C57G, C72G, G73C, C85G, G86C
modifications: listed as DNA, chemistry not fully specified
B12: cr872 (nucleic acid)
guide: B1 guide with G48T, C72G, G73C, C85G, G86C
modifications: listed as DNA, chemistry not fully specified
B13: cr075 (nucleic acid)
guide: B1 guide with A5C, G7T, C72G, G73C, C85G, G86C
modifications: listed as DNA, chemistry not fully specified
B14: cr544 (nucleic acid)
guide: B1 guide with G33C, T62C, A67G, C72G, G73C, C85G, G86C
modifications: listed as DNA, chemistry not fully specified
B15: cr395 (nucleic acid)
guide: B1 guide with A42T, G71A, C72G, G73C, G79A, C85G, G86C
modifications: listed as DNA, chemistry not fully specified
B16: cr979 (nucleic acid)
guide: B1 guide with T53G, A58T, C72G, G73C, C85G, G86C
modifications: listed as DNA, chemistry not fully specified
B17: cr490 (nucleic acid)
guide: B1 guide with C60A, G69T, C72G, G73C, A74G, G77C, C81G, T84C, C85G, G86C
modifications: listed as DNA, chemistry not fully specified
B18: cr390 (nucleic acid)
guide: B1 guide with G33A, G71A, C72G, G73C, C85G, G86C
modifications: listed as DNA, chemistry not fully specified
B19: cr229 (nucleic acid)
guide: B1 guide with A42C, C72G, G73C, C85G, G86C
modifications: listed as DNA, chemistry not fully specified
B20: cr185 (nucleic acid)
guide: B1 guide with C72G, G73C, C81A, C85G, G86C
modifications: listed as DNA, chemistry not fully specified
B21: cr221 (nucleic acid)
guide: B1 guide with G33A, C57G, A65G, C72G, G73C, C85G, G86C
modifications: listed as DNA, chemistry not fully specified
B22: cr259 (nucleic acid)
guide: B1 guide with C57G, A58T, G63C, C72G, G73C, C85G, G86C
modifications: listed as DNA, chemistry not fully specified
B23: cr808 (nucleic acid)
guide: B1 guide with G43A, C51T, C60A, G69T, C72T, G73C, C85G, G86A
modifications: listed as DNA, chemistry not fully specified
B24: cr560 (nucleic acid)
guide: B1 guide with T34C, C72G, G73C, C76T, G82A, C85G, G86C
modifications: listed as DNA, chemistry not fully specified
B25: cr091 (nucleic acid)
guide: B1 guide with A5T, G7C, C72G, G73C, C85G, G86C
modifications: listed as DNA, chemistry not fully specified
B26: cr274 (nucleic acid)
guide: B1 guide with G33C, T61C, A68G, C72G, G73C, C85G, G86C
modifications: listed as DNA, chemistry not fully specified
B27: cr761 (nucleic acid)
guide: B1 guide with A31T, A55G, A58T, C72G, G73C, C85G, G86C
modifications: listed as DNA, chemistry not fully specified
B28: cr230 (nucleic acid)
guide: B1 guide with G29A, G52A, A66C, C72G, G73C, C85G, G86C
modifications: listed as DNA, chemistry not fully specified
B29: cr502 (nucleic acid)
guide: B1 guide with C72G, G73C, G83C, C85G, G86C
modifications: listed as DNA, chemistry not fully specified
B30: cr029 (nucleic acid)
guide: B1 guide with A5C, A8G, C72G, G73C, C85G, G86C
modifications: listed as DNA, chemistry not fully specified
B31: cr447 (nucleic acid)
guide: B1 guide with T34C, C72G, G73C, G77A, C81T, C85G, G86C
modifications: listed as DNA, chemistry not fully specified
B32: cr228 (nucleic acid)
guide: B1 guide with C45G, C72G, G73C, C85G, G86C
modifications: listed as DNA, chemistry not fully specified
B33: cr826 (nucleic acid)
guide: B1 guide with G33T, T49C, A55T, C72G, G73C, C85G, G86C
modifications: listed as DNA, chemistry not fully specified
B34: cr059 (nucleic acid)
guide: B1 guide with T2G, G7A, C72G, G73C, C85G, G86C
modifications: listed as DNA, chemistry not fully specified
B35: cr618 (nucleic acid)
guide: B1 guide with A39G, C72G, G73C, C85G, G86C
modifications: listed as DNA, chemistry not fully specified
B36: cr461 (nucleic acid)
guide: B1 guide with G52T, T54A, A66G, C72G, G73C, C85G, G86C
modifications: listed as DNA, chemistry not fully specified
B37: cr047 (nucleic acid)
guide: B1 guide with A5T, A8T, C72G, G73C, C85G, G86C
modifications: listed as DNA, chemistry not fully specified
B38: cr798 (nucleic acid)
guide: B1 guide with C45A, G48T, C72G, G73C, C75T, G77C, C81G, G83A, C85G, G86C
modifications: listed as DNA, chemistry not fully specified
B39: cr257 (nucleic acid)
guide: B1 guide with A41C, G71T, C72G, G73C, C85G, G86C
modifications: listed as DNA, chemistry not fully specified

The first data set deals with K562 CRISPRi cells. Description: Constant region variant library pooled growth screen, K562. The format is cell-based, human. The following applies: sgRNA constant region variants; activity relative to the original, un-modified constant region cr995. The method, boiled down: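 Cells were selected with puromycin for 2 days and then kept in RPMI-1640 spinner cultures, with duplicates handled separately. Targeting sequences comprised 3 sgRNAs per essential gene for 10 genes plus six non-targeting controls. Activities were normalized against pairing with the unmodified scaffold.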
B1 registered a Mean relative activity of 1.039.

B2 yielded a Mean relative activity of 0.1086.

As to B3, the Mean relative activity worked out at 0.1104.

Molecule B4 showed a Mean relative activity of 1.038.

As for B5, the Mean relative activity worked out at 0.1076.

With B6, the Mean relative activity came out at 1.038.

The same data set, now with this note: sgRNA constant region variants; activity relative to the unmodified constant region cr995.
In the case of B7, the Mean relative activity came to 0.1766.

Molecule B8 displayed a Mean relative activity of 0.1183.

With B9, the Mean relative activity was found to be 0.1565.

Regarding B10, the Mean relative activity amounted to 0.1367.

As to B11, the Mean relative activity is 0.1568.

B12 showed a Mean relative activity of 0.1317.

B13 came in with a Mean relative activity of 0.1521.

Consider B14, for which the Mean relative activity came out at 0.1605.

On to B15, for which the Mean relative activity was found to be 0.1397.

B16 returned a Mean relative activity of 0.1765.

Regarding B17, the Mean relative activity is given as 0.1317.

As to B18, the Mean relative activity stood at 0.1354.

Molecule B19 returned a Mean relative activity of 0.1478.

In turn, B20 returned a Mean relative activity of 0.1755.

B21 yielded a Mean relative activity of 0.1553.

As for B22, the Mean relative activity amounted to 0.1243.

In turn, B23 came in with a Mean relative activity of 0.1417.

B24 showed a Mean relative activity of 0.1347.

On to B25, for which the Mean relative activity was found to be 0.1366.

Take B26: the Mean relative activity is 0.1303.

Molecule B27 registered a Mean relative activity of 0.1369.

On to B28, for which the Mean relative activity turned out to be 0.1598.

The molecule B29 yielded a Mean relative activity of 0.1485.

B30 yielded a Mean relative activity of 0.1663.

Regarding B31, the Mean relative activity is 0.1616.

Turning to B32, the Mean relative activity turned out to be 0.1424.

On to B33, for which the Mean relative activity is reported as 0.1633.

As to B34, the Mean relative activity is 0.1106.

B35: the Mean relative activity stood at 0.1571.

With B36, the Mean relative activity was found to be 0.1147.

In the case of B37, the Mean relative activity worked out at 0.1686.

B38: the Mean relative activity is given as 0.1361.

Turning to B39, the Mean relative activity was found to be 0.1109.
